{"source": "paper PMC9041834", "about": "“Ubiquitin ligase activity inhibits Cdk5 to control axon termination” (PLoS Genetics, 2022)", "binders": {"B1": {"name": "CDK-5::3xFLAG CRISPR (endogenous CDK-5 C-terminally tagged with 3xFLAG) (enzyme)", "chain": "not shown", "notes": "CDK-5, serine/threonine kinase of C. elegans (Cdk5 orthologue), expressed from the endogenous locus; also called CDK-5::FLAG; CDK-5::FLAG CRISPR; source: C. elegans, endogenous locus tagged by CRISPR/Cas9, in whole animal lysate; not shown: 3xFLAG, C-terminal, kept"}}, "molecular_target": "T1, GFP::FSN-1 CRISPR (endogenous FSN-1 N-terminally fused with GFP) (C. elegans, UniProt Q18223 1-332)", "T1 construct": "FSN-1, F-box protein of C. elegans (orthologue of human FBXO45), expressed from the endogenous locus; also called bgg47; source: C. elegans, endogenous locus tagged by CRISPR/Cas9, in whole animal lysate; not shown: GFP, N-terminal, kept", "T1 sequence (looked up)": "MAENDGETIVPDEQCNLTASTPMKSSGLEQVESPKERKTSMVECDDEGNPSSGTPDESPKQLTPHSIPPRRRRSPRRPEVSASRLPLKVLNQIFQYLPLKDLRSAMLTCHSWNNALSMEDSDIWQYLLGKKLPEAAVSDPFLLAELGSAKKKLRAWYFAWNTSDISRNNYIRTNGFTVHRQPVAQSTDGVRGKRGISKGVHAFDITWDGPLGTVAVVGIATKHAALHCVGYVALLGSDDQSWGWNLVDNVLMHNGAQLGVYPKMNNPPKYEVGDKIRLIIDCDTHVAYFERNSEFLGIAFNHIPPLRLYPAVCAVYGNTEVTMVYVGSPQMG", "assay": "co-IP; CRISPR-tagged endogenous proteins in whole animal lysates of C. elegans (wild-type background, and rpm-1 LD CRISPR background for the FSN-1 pair); 50 mM Tris HCl pH 7.5, 150 mM NaCl, 1.5 mM MgCl2, 10% glycerol, 0.1% NP-40, 1 mM DTT; anti-FLAG or anti-GFP, protein-G agarose 4 h at 4°C; immunoblot", "settings": "partners not purified"}
{"binder": "B1", "values": [{"measurement": "fold change of co-precipitated CDK-5::FLAG, rpm-1 LD CRISPR background against wild-type background", "value": "~6", "unit": "fold"}]}
